The values below are quoted from earlier work in article PMC11747410.

Data set [1] deals with CD166/ALCAM (Homo sapiens) (UniProt Q13740).
Data set [2] has the same target. This is another data set of the same source.

Read-outs that look alike come from different tables or passages of the source.

A word on the Kd: it is the concentration at which binding is half-saturated. As for CD166/ALCAM (from UniProt Q13740), the dissociation constant (Kd) in data set [1] is 38.5 µM.

On to CD6 (from UniProt P30203), for which the Kd in data set [2] is 0.7 µM.
